Laboratory results reported in patent US9777044B2, “GLUT-1 as a receptor for HTLV envelopes and its uses” (CENTRE NATIONAL DE LA RECHERCHE SCIENTIFIQUE (CNRS), priority 2003, dated 2017).

Legend:
GLUT-3 = target: T1, GLUT-3 (Homo sapiens, UniProt P11169); assay: RBD binding to cells overexpressing GLUT-3
T1 construct: factor Xa cleavage site + 2x HA + His (pCHIX cassette) (C); expressed in transfected cells; host or cells: 293T cells
T1 sequence (P11169 1-496): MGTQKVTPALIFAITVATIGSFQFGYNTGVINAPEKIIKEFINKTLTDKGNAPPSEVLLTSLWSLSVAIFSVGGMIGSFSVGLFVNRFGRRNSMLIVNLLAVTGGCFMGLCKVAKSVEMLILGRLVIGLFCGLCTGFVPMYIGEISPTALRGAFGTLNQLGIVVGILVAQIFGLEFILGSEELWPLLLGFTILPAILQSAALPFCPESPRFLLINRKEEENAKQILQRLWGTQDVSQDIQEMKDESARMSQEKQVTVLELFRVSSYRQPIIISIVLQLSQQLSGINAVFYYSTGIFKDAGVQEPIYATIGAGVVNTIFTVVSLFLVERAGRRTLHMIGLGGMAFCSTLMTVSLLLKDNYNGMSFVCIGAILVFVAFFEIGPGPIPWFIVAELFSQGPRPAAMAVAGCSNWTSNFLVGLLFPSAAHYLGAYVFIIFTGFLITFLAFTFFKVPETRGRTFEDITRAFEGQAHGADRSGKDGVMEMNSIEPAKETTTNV
Text: In order to directly test the ability of HTLV envelopes to bind GLUT-1, we derived a tagged GLUT-1 expression vector and overexpressed this protein in HeLa cells. […] GLUT-3 is the closest isoform to GLUT-1, and transports glucose with kinetics similar to that of GLUT-1. Thus, we derived a tagged GLUT-3 expression vector. […] To determine if GLUT-1 transfected cells were directly responsible for the observed increased in H1RBD binding, we derived fluorescent tagged GLUT-1 and GLUT-3 to uniquevocally identity GLUT-overexpressing cells in the course of our FACS analysis. […] Consequently, we tested if HTLV glycoproteins directly interact with GLUT-1 proteins. To this end, we evaluated the ability of H1RBD to immunoprecipitate GLUT-1. […] Therefore, the GLUT-1 glucose transporter is an essential component of the HTLV envelope receptor.
Expression vectors. Full length envelope expression vectors for HTLV-1 (pCEL/2[Denesvre, 1995]) and Friend ecotropic MLV (pCEL/F [Denesvre, 1995]), have been previously described. For the HTLV-2 envelope, a fragment from pHTE2 [Rosenberg, 1998] encompassing the tax, rex and env genes and the 3′ LTR was inserted in the pCSI [Battini, 1999] vector (pCSIX.H2). […]
Binding assays. […] Binding was analyzed on a FACSCalibur (Becton Dickinson) and data analysis was performed using CellQuest (Becton Dickinson) and WinMDI (Scripps) softwares.

293T cells = assay: Hexose uptake assay: fructose; assay type: cell-based, human; details: transfected 293T cells
Protocol: Assay of hexose uptake. 2-deoxy-D[1-^3H]glucose, D[U-^14C]fructose and 3-O-[^14C]methyl-D-glucose were obtained from Amersham. Hexose uptake assay were adapted from Harrison et al. 1991). After transfection, approximately 250,000 were seeded/well in 24-well plates. […] Uptake was initiated by adding labeled hexoses to a final concentration of 0.1 mM (2 μCi/ml for 2-2-deoxy-D[1-^3H]glucose and 0.2 μCi/ml for D[U-^14C]fructose and 3-O-[^14C]methyl-D-glucose) and cells were incubated for 5′ additional minutes. Cells were then resuspended in 500 μl cold serum-free glucose-free DMEM, wash one time in serum-free glucose-free DMEM, and solubilized in 400 μl of 0.1% SDS. 3 μl was used for Bradford normalization, while the rest was used for detection of either ^3H or ^14C by liquid scintillation in a Beckman counter.

B1: H1RBD: first 215 residues of HTLV-1 SU fused to a C-terminal rabbit IgG Fc tag (rFc) (protein)
chain: DYSPSCCTLTIGVSSYHSKPCNPAQPVCSWTLDLLALSADQALQPPCPNLVSYSSYHATYSLYLFPHWIKKPNRNGGGYYSASYSDPCSLKCPYLGCQSWTCPYTGAVSSPYWKFQQDVNFTQEVSRLNINLHFSKCGFPFSLLVDAPGYDPIWFLNTEPSQLPPTAPPLLPHSNLDHILEPSIPWKSKLLTLVQVDVPRDCGCKPCICTVPEVSSVFIFPPKPKDVLTITLTPKVTCVVVDISKDDPEVQFSWFVDDVEVHTAQTQPREEQFNSTFRSVSELPIMHQDWLNGKEFKCRVNSAAFPAPIEKTISKTKGRPKAPQVYTIPPPKEQMAKDKVSLTCMITDFFPEDITVEWQWNGQPAENYKNTQPIMDTDGSYFVYSKLNVQKSNWEAGNTFTCSVLHEGLHNHHTEKSLSHSPGK
GLUT-3; 293T cells, tagged GLUT-3
  binding upon GLUT-3 overexpression: did not induce any increase
GLUT-3; fluorescent tagged GLUT-3, FACS analysis
  H1RBD binding to cells overexpressing GLUT-3-DsRed2: no effect
293T cells
  Fructose uptake: not altered
